# Experimental data as given in PMC3823998, “Structural and Functional Characterization of the Redβ Recombinase from Bacteriophage λ” (PLoS ONE, 2013).
# Substitutions are numbered along the chain they refer to.
# B1: Redβ V79A (natural protein, bacteriophage λ)
# chain: GSHMSTALATLAGKLAERVGMDSVDPQELITTLRQTAFKGDASDAQFIALLIVANQYGLNPWTKEIYAFPDKQNGIVPVVGADGWSRIINENQQFDGMDFEQDNESCTCRIYRKDRNHPICVTEWMDECRREPFKTREGREITGPWQSHPKRMLRHKAMIQCARLAFGFAGIYDKDEAERIVENTAYTAERQPERDITPVNDETMQEINTLLIALDKTWDDDLLPLCSQIFRRDIRASSELTQAEAVKALGFLKQKAAEQKVAA
# notes: three residues (Gly-Ser-His) left before the initial methionine after thrombin removal of the tag; Redβ, recombinase of Enterobacteria phage λ, alanine substitution mutant; source: E. coli BL21(DE3), purified (HisTrap FF, thrombin digestion, HisTrap FF, Benzamidine FF); not shown: His6, N-terminal, cleaved
# B2: Redβ V77A (natural protein, bacteriophage λ)
# chain: B1 chain with V80A, A82V
# notes: as for B1
# B3: Redβ K69A (natural protein, bacteriophage λ)
# chain: B1 chain with K72A, A82V
# notes: as for B1
# B4: Redβ K148A (natural protein, bacteriophage λ)
# chain: B1 chain with A82V, K151A
# notes: three residues (Gly-Ser-His) left before the initial methionine after thrombin removal of the tag; Redβ, recombinase of Enterobacteria phage λ, alanine substitution mutant; By gel filtration complexes of approximately 3 subunits; source: E. coli BL21(DE3), purified (HisTrap FF, thrombin digestion, HisTrap FF, Benzamidine FF); not shown: His6, N-terminal, cleaved
# B5: Redβ R149A (natural protein, bacteriophage λ)
# chain: B1 chain with A82V, R152A
# notes: as for B4
# B6: Redβ R152A (natural protein, bacteriophage λ)
# chain: B1 chain with A82V, R155A
# notes: as for B1
# B7: Redβ K132A (natural protein, bacteriophage λ)
# chain: B1 chain with A82V, K135A
# notes: as for B1
# B8: Redβ G78A (natural protein, bacteriophage λ)
# chain: B1 chain with G81A, A82V
# notes: as for B1
# B9: Redβ D80A (natural protein, bacteriophage λ)
# chain: B1 chain with A82V, D83A
# notes: as for B1
# B10: Redβ Y64A (natural protein, bacteriophage λ)
# chain: B1 chain with Y67A, A82V
# notes: as for B1
# B11: Redβ wild-type (WT) protein from bacteriophage λ (natural protein)
# chain: B1 chain with A82V
# notes: three residues (Gly-Ser-His) left before the initial methionine after thrombin removal of the tag; Redβ, recombinase of Enterobacteria phage λ, bet gene amplified from phage λ genomic DNA, in pET14b; Forms multimers; subunit about 30 kDa; also called Redβ WT; source: E. coli BL21(DE3), purified (HisTrap FF, thrombin digestion, HisTrap FF, Benzamidine FF); not shown: His6, N-terminal, cleaved
# B12: Redβ K172A (natural protein, bacteriophage λ)
# chain: B1 chain with A82V, K175A
# notes: as for B1
# B13: Redβ R161A (natural protein, bacteriophage λ)
# chain: B1 chain with A82V, R164A
# notes: as for B1
# Biological target: the molecule itself
# Experiment: SEC; Superdex 200 5/150 GL, 20 mM potassium phosphate pH 6.0, 10 mM MgCl2, 0.15 M NaCl; masses estimated from a calibration curve; self-association, no DNA
Protein,binding result,stoichiometry N [subunits]
B1,binds,–
B2,binds,–
B3,binds,–
B4,–,~3
B5,–,~3
B6,binds,–
B7,binds,–
B8,binds,–
B9,binds,–
B10,binds,–

# Biological target: the molecule itself
# Experiment: native gel or EMSA; native PAGE, 10 µg protein per lane (20 µg in Figure S3), 5-20% gradient polyacrylamide gel, 25 mM Tris, 192 mM glycine, Coomassie stain; self-association, no DNA
row,Protein,binding result
1,B11,binds
2,B12,binds
3,B13,binds
